Reference: patent CN116655791A (ZHEJIANG CHUQI BIOLOGICAL TECH CO LTD, dated 2023)

Biological target: T1, 人泌乳素受体-ECD蛋白 (25-234aa, Factor Xa site, 6xHis) (human)
T1 chain: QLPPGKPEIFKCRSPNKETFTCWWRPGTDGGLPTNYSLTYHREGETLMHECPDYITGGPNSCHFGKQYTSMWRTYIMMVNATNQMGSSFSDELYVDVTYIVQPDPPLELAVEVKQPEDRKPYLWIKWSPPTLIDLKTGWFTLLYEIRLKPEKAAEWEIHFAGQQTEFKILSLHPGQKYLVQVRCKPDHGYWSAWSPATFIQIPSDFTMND
Test: indirect ELISA on coated PRLR-ECD

EC50: 4.6 ng/mL
B1: 抗泌乳素受体的纳米抗体融合蛋白CQ24-Fc (Fc fusion)
chain: SQVQLVESGGGSVQAGGSLRLSCVASGYTRRGNCLGWFRQAPGKEREGVASIYASSGWTSYADSVKGRFTISLDNAKTMVYLQMNSLNPEDTAMYFCAAADTGLCGLGARIYSYWGQGTQVTVSSDKTHTCPPCPAPEAAGGPSVFLFPPKPKDTLMISRTPEVTCVVVDVSHEDPEVKFNWYVDGVEVHNAKTKPREEQYNSTYRVVSVLTVLHQDWLNGKEYKCKVSNKALPAPIEKTISKAKGQPREPQVYTLPPSREEMTKNQVSLTCLVKGFYPSDIAVEWESNGQPENNYKTTPPVLDSDGSFFLYSKLTVDKSRWQQGNVFSCSVMHEALHNHYTQKSLSLSLGK
notes: the signal peptide is left out here; also called CQ24纳米抗体; CQ24-VHH
